Test [1] deals with T1, Transmembrane serine protease 2 (TMPRSS2) (UniProt O15393 106-492).
T1 construct: also called rTMPRSS2
Description: ratio of second order inhibition rate constants, with A1AT as reference.

Test [2] deals with T1, Transmembrane serine protease 2 …. Briefly: cell-based or functional assay.

T1 sequence (O15393 106-492 limits assumed): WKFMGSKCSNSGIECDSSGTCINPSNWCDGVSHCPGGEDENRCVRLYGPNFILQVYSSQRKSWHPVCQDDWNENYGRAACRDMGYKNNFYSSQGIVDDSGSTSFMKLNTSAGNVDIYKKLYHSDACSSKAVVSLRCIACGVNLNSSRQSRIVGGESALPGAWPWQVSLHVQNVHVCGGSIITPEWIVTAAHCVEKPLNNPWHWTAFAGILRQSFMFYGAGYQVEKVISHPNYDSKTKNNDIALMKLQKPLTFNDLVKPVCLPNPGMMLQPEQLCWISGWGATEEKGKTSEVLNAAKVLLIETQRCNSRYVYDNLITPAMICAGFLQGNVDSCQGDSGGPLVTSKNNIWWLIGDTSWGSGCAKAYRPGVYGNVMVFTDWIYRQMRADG

B1: SerpinB3-TMP variant (other)
chain: MNSLSEANTKFMFDLFQQFRKSKENNIFYSPISITSALGMVLLGAKDNTAQQIKKVLHFDQVTENTTGKAATYHVDRSGNVHHQFQKLLTEFNKSTDAYELKIANKLFGEKTYLFLQEYLDAIKKFYQTSVESVDFANAPEESRKKINSWVESQTNEKIKNLIPEGNIGSNTTLVLVNAIYFKGQWEKKFNKEDTKEEKFWPNKNTYKSIQMMRQYTSFHFASLEDVQAKVLEIPYKGKDLSMIVLLPNEIDGLQKLEEKLTAEKLMEWTSLQNMRETRVDLHLPRFKVEESYDLKDTLRTMGMVDIFNGDADLSGMTGSRGLVLSGVLHKAFVEVTEEGAEAAAATAVIQFRVSPTSTNEEFHCNHPFLFFIRQNKTNSILFYGRFSSP
notes: also called SerpinB3 anti-TMPRSS2; modified SerpinB3-TMP
As for B1, in test [1], the “fold increase in TMPRSS2 specificity (k2) over A1AT” value was 18 fold. The “TMPRSS2 inhibition at a 5:1 serpin:protease ratio (residual activity on Boc-QAR-AMC after 10 min incubation)” value in test [2] turned out to be 92%.

For the origin of these results see patent US20240350597A1 (UNIVERSITY COLLEGE DUBLIN, published 2024).
